Data reported in PMC7668254.

Target: T1, DROSHA fragment D3;DGCR8 fragment G1 (human;human, UniProt Q9NRR4;Q8WYQ5 390-1365;728-750, |)
T1 sequence 1: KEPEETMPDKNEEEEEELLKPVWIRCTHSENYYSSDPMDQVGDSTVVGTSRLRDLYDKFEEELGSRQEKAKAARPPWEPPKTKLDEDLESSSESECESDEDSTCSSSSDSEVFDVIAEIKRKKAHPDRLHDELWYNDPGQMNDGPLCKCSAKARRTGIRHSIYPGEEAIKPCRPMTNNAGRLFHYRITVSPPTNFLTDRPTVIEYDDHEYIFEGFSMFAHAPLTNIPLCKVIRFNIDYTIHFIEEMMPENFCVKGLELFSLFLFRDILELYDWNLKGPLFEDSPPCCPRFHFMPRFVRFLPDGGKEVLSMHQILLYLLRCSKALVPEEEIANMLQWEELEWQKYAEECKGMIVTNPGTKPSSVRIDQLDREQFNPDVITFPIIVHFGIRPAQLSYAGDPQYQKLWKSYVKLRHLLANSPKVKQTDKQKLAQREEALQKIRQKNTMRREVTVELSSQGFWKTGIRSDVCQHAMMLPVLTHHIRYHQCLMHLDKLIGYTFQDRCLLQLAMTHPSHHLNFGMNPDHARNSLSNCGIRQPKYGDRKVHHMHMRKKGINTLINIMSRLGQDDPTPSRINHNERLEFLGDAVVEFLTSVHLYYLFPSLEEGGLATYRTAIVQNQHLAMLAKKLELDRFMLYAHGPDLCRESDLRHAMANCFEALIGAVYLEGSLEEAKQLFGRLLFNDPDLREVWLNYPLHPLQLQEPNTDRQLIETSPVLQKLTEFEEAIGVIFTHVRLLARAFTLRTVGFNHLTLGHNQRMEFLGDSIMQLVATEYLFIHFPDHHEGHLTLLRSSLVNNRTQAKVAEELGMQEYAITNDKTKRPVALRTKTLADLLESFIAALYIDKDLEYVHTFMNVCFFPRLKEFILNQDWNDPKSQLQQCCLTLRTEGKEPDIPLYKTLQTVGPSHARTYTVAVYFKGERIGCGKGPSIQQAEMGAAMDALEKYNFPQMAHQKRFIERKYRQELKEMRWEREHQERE
T1 sequence 2: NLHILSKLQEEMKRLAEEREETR
Test: EMSA; 2 mM EDTA; 1.5 pmol RNA, 5-25 pmol D3-G1 in 10 uL; 50 mM Tris-HCl pH 7.5, 150 mM NaCl, 0.2 mg/ml BSA, 10% glycerol, 2 mM EDTA, 1 mM DTT; on ice 60 min; 4% native PAGE in 1x TBE at 4 C
Details: protein: recombinant;recombinant; tags: ;; copies: 1;2; hairpin

B1: Short pri-mir-146a_C (structured_RNA)
RNA: GGAGAACUGAAUUCCAUGGGUUGUGUCAGUGUCAGACCUCUGAAAUUCAGUUCUUCAG
  binding result: binds
